The record followed here is patent publication US20250346643A1, “TROPOMYOSIN KINASE RECEPTOR (TRK) LIGANDS AS THERAPEUTICS TO SUPPORT LIVER REGENERATION” (Vanderbilt University, priority 2024, published 2025).

This data set concerns primary mouse hepatocytes. As to the kind of experiment: Cell proliferation assay (CellTiter-Glo) in primary mouse hepatocytes. In kind it is cell-based. The settings on record: for increase of primary hepatocyte proliferation: HGF 5 ng/ml, serum-free medium (FIG. 9M); for cell proliferation, comparison of NTF3, HGF, BDNF and NAS: BDNF and HGF 20 ng/ml, NAS 500 nM (FIG. 16E). As for the experimental part: Primary hepatocyte isolation. Pdgfrb-GFP-negative or H-2Kd mice older than 4 months were anesthetized and cannulated via the portal vein. Livers were perfused with about 25 ml of pre-warmed Liver Perfusion Medium (Gibco, Waltham, MA; 17707-038) followed by about 50 ml Liver Digestion Medium (Gibco, Waltham, MA; 17703-034). Liver capsule was gently teased apart with tweezers and hepatocytes released. Cells were taken up in Hepatocyte Wash Buffer (Gibco, Waltham, MA; 17704-024) and filtered through 100 μm mesh. Cells were then centrifuged for 2 min at 100 g, 4° C. and cell pellet resuspended in ice cold 10 ml DMEM (Gibco, Waltham, MA; 11885-084)/5% FBS. 10 ml of ice cold 100% Percoll®/PBS (GE HealthCare, Chicago, IL; GE17-0891-01) was added for gradient purification and cells centrifuged for 10 min at 200 g, 4° C. Cell pellet was resuspended with 20 ml DMEM/5% FBS and centrifuged for 2 min at 100 g, 4° C. 1-2×10^3 hepatocytes were plated on collagen-coated 96-well plates in DMEM/5% FBS/Pen/Strep. Rat tail collagen I (Gibco, Waltham, MA; A1048301) was used for coating. Cell culture media was changed 3 hours after plating with either serum-free William's E media (Gibco, Waltham, MA) containing Pen/Strep (Gibco, Waltham, MA) or DMEM/5% FBS/Pen/Strep. NTF3 (STEMCELL technologies, Vancouver, Canada) was added 1 day after plating at a final concentration of 20 ng/ml and primary hepatocytes cultured for 3 days with NTF3 until analysis.
Cell proliferation assays. Primary mouse hepatocytes, HepG2 or AML 12 cells were grown in opaque-walled 96-well plates. NTF3 (final concentration 20 ng/ml) (STEMCELL Technologies, Vancouver, Canada; cat. 78074) and/or Loxo-195 (final concentration 5 nM) (Selleckchem, Houston, TX; S8636) were added into complete growth media without L-glutamine. Primary mouse hepatocytes were also grown in serum-free William's E media without supplements. Cells were analyzed by CellTiter-Glo® (Promega G7570, Madison, WI) which detects the number of viable cells on day 0 to day 5 by on detection systems GloMax® (Promega) or Bioteck Synergy H1 (Agilent, Santa Clara, CA). Mouse recombinant HGF (Abcam, Cambridge, UK; ab281797) was added to cell culture media at a final concentration 5 ng/ml. TRKB inhibitor ANA-12 (Selleckchem, Houston, TX; S7745) was diluted in DMSO (10 mM stock solution) and added to cell culture media at a final concentration of 10 nM.
Primary mouse hepatocyte isolation. Mice were anesthetized and cannulated via the portal vein. Livers were perfused with ˜25 ml of prewarmed liver perfusion medium (Gibco, Waltham, MA; 17707-038) followed by ˜50 ml of liver digestion medium (Gibco, Waltham, MA; 17703-034). The liver capsule was gently teased apart with tweezers, and hepatocytes were released. Cells were taken up in Hepatocyte Wash Buffer (Gibco, Waltham, MA; 17704-024) and filtered through a 100-μm mesh. Cells were then centrifuged for 2 min at 100 g, 4° C., and the cell pellet was resuspended in 10 ml of ice-cold DMEM (Gibco, Waltham, MA; 11885-084)/5% FBS. […] of ice-cold 100% Percoll®/PBS (GE HealthCare, Chicago, IL; GE17-0891-01) were added for gradient purification, and cells were centrifuged for 10 min at 200 g, 4° C. The cell pellet was resuspended with 20 ml of DMEM/5% FBS and centrifuged for 2 min at 100 g, 4° C. A total of 1×10^3 to 2×10^3 hepatocytes were plated on collagen-coated 96-well plates in DMEM/5% FBS/Pen/Strep. Rat tail collagen I (Gibco, Waltham, MA; A1048301) was used for coating. Cell culture media were changed 3 hours after plating with either serum-free William's E media (Gibco, Waltham, MA) containing Pen/Strep (Gibco, Waltham, MA) or DMEM/5% FBS/Pen/Strep. […]

Turning to “NTF3: neurotrophin-3, recombinant protein; HSC-derived hepatocyte mitogen, ligand of TRKA, TRKB, TRKC”, where the note is “NTF3 20 ng/ml + HGF 5 ng/ml, serum-free medium (FIG. 9N)”, the “synergism with HGF on primary hepatocyte proliferation” value is on record as “no synergistic effects”. In addition, the “increase of primary hepatocyte proliferation” value (NTF3 20 ng/ml) stood at 1.5 fold. Moreover, the “cell proliferation vs control-treated hepatocytes” value (NTF3 20 ng/ml, serum-free and serum-containing media (FIG. 8F, 9D)) is “significantly higher”.

B1: BDNF: brain-derived neurotrophic factor, neurotrophin specific for TrkB (protein)
chain: HSDPARRGELSVCDSISEWVTAADKKTAVDMSGGTVTVLEKVPVSKGQLKQYFYETKCNPMGYTKEGCRGIDKRHWNSQCRTTQSYVRALTMDSKKRIGWRFIRIDTSCVCTLTIKRGR
Consider B1, for which the “cell proliferation, comparison of NTF3, HGF, BDNF and NAS” value was “induce proliferation to a similar extent”. Further, the cell proliferation result (BDNF 20 ng/ml (FIG. 16C)) is recorded as “significantly induced proliferation”.

B2: HGF: hepatocyte growth factor, complete hepatocyte mitogen used as comparator (protein, UniProt Q08048 33-495; Q08048 496-728, looked up)
Hepatocyte growth factor …: QKKRRNTLHEFKKSAKTTLTKEDPLLKIKTKKVNSADECANRCIRNRGFTFTCKAFVFDKSRKRCYWYPFNSMSSGVKKGFGHEFDLYENKDYIRNCIIGKGGSYKGTVSITKSGIKCQPWNSMIPHEHSFLPSSYRGKDLQENYCRNPRGEEGGPWCFTSNPEVRYEVCDIPQCSEVECMTCNGESYRGPMDHTESGKTCQRWDQQTPHRHKFLPERYPDKGFDDNYCRNPDGKPRPWCYTLDPDTPWEYCAIKTCAHSAVNETDVPMETTECIQGQGEGYRGTSNTIWNGIPCQRWDSQYPHKHDITPENFKCKDLRENYCRNPDGAESPWCFTTDPNIRVGYCSQIPKCDVSSGQDCYRGNGKNYMGNLSKTRSGLTCSMWDKNMEDLHRHIFWEPDASKLNKNYCRNPDDDAHGPWCYTGNPLIPWDYCPISRCEGDTTPTIVNLDHPVISCAKTKQLR
Hepatocyte growth factor beta …: VVNGIPTQTTVGWMVSLKYRNKHICGGSLIKESWVLTARQCFPARNKDLKDYEAWLGIHDVHERGEEKRKQILNISQLVYGPEGSDLVLLKLARPAILDNFVSTIDLPSYGCTIPEKTTCSIYGWGYTGLINADGLLRVAHLYIMGNEKCSQHHQGKVTLNESELCAGAEKIGSGPCEGDYGGPLICEQHKMRMVLGVIVPGRGCAIPNRPGIFVRVAYYAKWIHKVILTYKL
B2: the “cell proliferation, comparison of NTF3, HGF, BDNF and NAS” value is listed as “more potent”. Besides, where the note is “NTF3 20 ng/ml”, the “increase of primary hepatocyte proliferation” value amounted to 2.6 fold.
